In paper PMC3688735:

Biological target: mKate
Assay: SEC; gel filtration on a 1x90 cm Econo-column packed with Sephacryl-S200, equilibrated with 25 mM Tris-HCl pH 7.5, 150 mM NaCl; self-association of the purified fluorescent protein

- stoichiometry N: 2
Substance: mKate
